The record followed here is US20030152568A1.

In the assay the target is FGF receptor-3c on human osteosarcoma cell line (ATCC, CRL 1543) (human) (UniProt P22607). As to the kind of experiment: cell-based or functional assay.
Sequence of UniProt P22607 (P22607 23-806): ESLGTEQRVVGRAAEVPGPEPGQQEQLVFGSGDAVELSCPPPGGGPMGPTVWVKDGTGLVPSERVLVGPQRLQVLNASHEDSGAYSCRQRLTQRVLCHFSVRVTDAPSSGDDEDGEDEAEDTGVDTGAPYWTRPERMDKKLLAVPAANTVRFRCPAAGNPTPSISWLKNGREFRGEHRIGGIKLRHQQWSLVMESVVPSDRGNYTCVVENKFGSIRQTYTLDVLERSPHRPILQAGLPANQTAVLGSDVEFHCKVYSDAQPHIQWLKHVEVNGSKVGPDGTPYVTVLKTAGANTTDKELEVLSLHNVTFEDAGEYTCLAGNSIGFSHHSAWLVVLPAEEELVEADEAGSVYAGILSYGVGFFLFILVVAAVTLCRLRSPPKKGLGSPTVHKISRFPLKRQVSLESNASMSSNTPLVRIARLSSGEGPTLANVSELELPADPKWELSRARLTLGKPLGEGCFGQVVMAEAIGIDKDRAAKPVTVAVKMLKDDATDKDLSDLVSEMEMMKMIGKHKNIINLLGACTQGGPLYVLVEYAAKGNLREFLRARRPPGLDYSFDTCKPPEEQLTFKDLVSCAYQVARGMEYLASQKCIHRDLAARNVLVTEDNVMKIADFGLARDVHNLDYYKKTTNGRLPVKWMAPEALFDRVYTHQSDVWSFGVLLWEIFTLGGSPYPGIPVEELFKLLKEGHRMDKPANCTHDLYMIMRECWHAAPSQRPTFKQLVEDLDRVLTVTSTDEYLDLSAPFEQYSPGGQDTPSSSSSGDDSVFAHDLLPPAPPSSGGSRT

Sequence of FGF-18-saporin conjugate (O76093 28-207): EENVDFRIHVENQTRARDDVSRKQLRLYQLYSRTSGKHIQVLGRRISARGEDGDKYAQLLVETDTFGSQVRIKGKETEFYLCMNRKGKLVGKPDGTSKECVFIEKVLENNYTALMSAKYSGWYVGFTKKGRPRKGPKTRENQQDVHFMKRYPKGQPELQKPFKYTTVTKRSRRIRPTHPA

On to FGF-18-saporin conjugate, for which the LD50 (sensitivity of cell lines to the FGF-18-saporin conjugate) was under 1 nM.
